From patent US20110263454A1, “Methods of Identifying Functional Characteristics of Promoters, Transcription Modifying Proteins and Transcription Modulating Agents” (Salk Institute for Biological Studies, priority 2008, published 2011)

B1: LXRb: Liver X Receptor β (NR1H2), cDNA driver (protein, UniProt P55055 1-460, looked up)
Oxysterols receptor LXR-beta: MSSPTTSSLDTPLPGNGPPQPGAPSSSPTVKEEGPEPWPGGPDPDVPGTDEASSACSTDWVIPDPEEEPERKRKKGPAPKMLGHELCRVCGDKASGFHYNVLSCEGCKGFFRRSVVRGGARRYACRGGGTCQMDAFMRRKCQQCRLRKCKEAGMREQCVLSEEQIRKKKIRKQQQESQSQSQSPVGPQGSSSSASGPGASPGGSEAGSQGSGEGEGVQLTAAQELMIQQLVAAQLQCNKRSFSDQPKVTPWPLGADPQSRDARQQRFAHFTELAIISVQEIVDFAKQVPGFLQLGREDQIALLKASTIEIMLLETARRYNHETECITFLKDFTYSKDDFHRAGLQVEFINPIFEFSRAMRRLGLDDAEYALLIAINIFSADRPNVQEPGRVEALQQPYVEALLSYTRIKRPQDQLRFPRMLMKLVSLRTLSSVHSEQVFALRLQDKKLPPLLSEIWDVHE
B2: HNF4a: Hepatocyte Nuclear Factor α (NR2A1), cDNA driver (protein, UniProt P41235 1-474, looked up)
Hepatocyte nuclear factor …: MRLSKTLVDMDMADYSAALDPAYTTLEFENVQVLTMGNDTSPSEGTNLNAPNSLGVSALCAICGDRATGKHYGASSCDGCKGFFRRSVRKNHMYSCRFSRQCVVDKDKRNQCRYCRLKKCFRAGMKKEAVQNERDRISTRRSSYEDSSLPSINALLQAEVLSRQITSPVSGINGDIRAKKIASIADVCESMKEQLLVLVEWAKYIPAFCELPLDDQVALLRAHAGEHLLLGATKRSMVFKDVLLLGNDYIVPRHCPELAEMSRVSIRILDELVLPFQELQIDDNEYAYLKAIIFFDPDAKGLSDPGKIKRLRSQVQVSLEDYINDRQYDSRGRFGELLLLLPTLQSITWQMIEQIQFIKLFGMAKIDNLLQEMLLGGSPSDAPHAHHPLHPHLMQEHMGTNVIVANTMPTHLSNGQMCEWPRPRGQAATPETPQPSPPGGSGSEPYKLLPGAVATIVKPLSAIPQPTITKQEVI
B3: RORa: RAR-related Orphan Receptor α (NR1F1), cDNA driver (protein, UniProt P35398 1-523, looked up)
Nuclear receptor ROR-alpha: MESAPAAPDPAASEPGSSGADAAAGSRETPLNQESARKSEPPAPVRRQSYSSTSRGISVTKKTHTSQIEIIPCKICGDKSSGIHYGVITCEGCKGFFRRSQQSNATYSCPRQKNCLIDRTSRNRCQHCRLQKCLAVGMSRDAVKFGRMSKKQRDSLYAEVQKHRMQQQQRDHQQQPGEAEPLTPTYNISANGLTELHDDLSNYIDGHTPEGSKADSAVSSFYLDIQPSPDQSGLDINGIKPEPICDYTPASGFFPYCSFTNGETSPTVSMAELEHLAQNISKSHLETCQYLREELQQITWQTFLQEEIENYQNKQREVMWQLCAIKITEAIQYVVEFAKRIDGFMELCQNDQIVLLKAGSLEVVFIRMCRAFDSQNNTVYFDGKYASPDVFKSLGCEDFISFVFEFGKSLCSMHLTEDEIALFSAFVLMSADRSWLQEKVKIEKLQQKIQLALQHVLQKNHREDGILTKLICKVSTLRALCGRHTEKLMAFKAIYPDIVRLHFPPLYKELFTSEFEPAMQIDG

Assays:
hPPARg1 promoter = assay: NHR-promoter luciferase screen, hPPARg1 promoter; format: cell-based, human; conditions: for Luc. act., normalized to lacZ / Normalized Luc. act., normalized to control: PPARG1 promoter, hormone receptor with or without its ligand; for Normalized Luc. act., normalized to control: relative to control; for Results of assays of transcription factor (+/- ligand) with hPPARg1: Table 6d, luciferase activity relative to control (control = 1.00)
Method: (§1) The use, feasibility, and reproducibility of the functional NHR-promoter screen in a 48-well format have been tested validated. Briefly, there were co-expressed 50 ng of each NHR/NHR homodimer or NHR/RXR heterodimer with 100 ng promoter/luciferase construct and 50 ng of LacZ (as a control for transfection efficiency) in CV-1 cells using Fugene HD (Roche) as a transfection reagent (alternatively or additionally, a CMV-YFP construct can be used as a transfection control). Each of the nuclear hormone receptors that were used in these experiments was cloned into a pcDNA3.1 vector and comprised a C-terminally linked V5H6 tag. Twenty-four hours after transfection, appropriate ligands were added, where applicable, (see Table 5 for various ligands and concentrations and after 48 hrs, samples were assayed for luciferase and LacZ activity. To measure for luciferase activity 15 ul of sample was added to 30 ul of luciferase buffer (20 mM tricine, 1.07 mM MgCarbonate, 2.67 mM MgSulfate, 0.1 mM Naz-EDTA, 5 mM DTT, 5 mM ATP, 0.15 mg/ml CoA, 0.5 mM Luciferin), mixed briefly, and run in a Perkin Elmer Victor 5 luminometer. Thus, the functional NHR-promoter screen was used to observe the transcriptional activity of 29 promoters from various physiological pathways including inflammation, lipid and sugar metabolism, cholesterol transport, xenobiotic metabolism, and circadian rhythm.
(§2) The promoters that facilitate transcription of the indicated gene products that were tested using the protocols described herein are listed in the first row of the table. The nuclear hormone receptors and, where applicable, ligands that were assayed for their transcriptional effects on the promoters are listed in the first column of the table. The data represent the luciferase activity of each sample normalized to both the lacZ activity of that sample and to a control, e.g., no NHR or ligand, as customary in the art. As described previously, these normalizations allow the transcriptional activity of each reporter cell to be compared to other samples.
(§3) Tables 7-40 show the transcriptional effects of the hormone receptors, and, where applicable, ligands (orphan receptors are screened without ligand), on each individual promoter. […] The control data of each table are shown in their last rows.

mPer1 promoter = assay: NHR-promoter luciferase screen, mPer1 promoter; format: cell-based, mouse; conditions: for Luc. act., normalized to lacZ / Normalized Luc. act., normalized to control: Per1 promoter reporter, co-transfected HR, with or without its ligand; for Normalized Luc. act., normalized to control: relative to control; for luciferase activity normalized to lacZ activity and to a control, mPer1: mPer1 promoter-luciferase, CV-1 cells, NHR +/- ligand, control = 1.00
Method: as §1, §2, §3

mAgrp promoter = assay: NHR-promoter luciferase screen, mAgrp promoter; format: cell-based, mouse; conditions: for Results of assays of transcription factor (+/- ligand) with mAgrp: Table 6d, luciferase activity relative to control (control = 1.00); for Luc. act., normalized to lacZ / Normalized Luc. act., normalized to control: mAgrp promoter, HR component with or without ligand; for Normalized Luc. act., normalized to control: relative to control
Method: as §1, §2, §3

hCAR promoter = assay: NHR-promoter luciferase screen, hCAR promoter; format: cell-based, human; conditions: for luciferase activity normalized to lacZ activity and to a control, hCAR: hCAR promoter-luciferase, CV-1 cells, NHR +/- ligand, control = 1.00; for Luc. act., normalized to lacZ / Normalized Luc. act., normalized to control: hCAR promoter, HR/ligand component
Method: as §1, §2, §3

hCYP3A4 promoter = assay: NHR-promoter luciferase screen, hCYP3A4 promoter; format: cell-based, human; conditions: for Luc. act., normalized to lacZ / Normalized Luc. act., normalized to control: CYP3A4 promoter, HR/ligand component; for hCYP3A4 promoter reporter activity: transcription factor +/- ligand, control = 1.00
Method: Briefly, there were co-expressed 50 ng of each NHR/NHR homodimer or NHR/RXR heterodimer with 100 ng promoter/luciferase construct and 50 ng of LacZ (as a control for transfection efficiency) in CV-1 cells using Fugene HD (Roche) as a transfection reagent (alternatively or additionally, a CMV-YFP construct can be used as a transfection control). Each of the nuclear hormone receptors that were used in these experiments was cloned into a pcDNA3.1 vector and comprised a C-terminally linked V5H6 tag.
as §2, §3

mUCP1 promoter = assay: NHR-promoter luciferase screen, mUCP1 promoter; format: cell-based, mouse; conditions: for Luc. act., normalized to lacZ / Normalized Luc. act., normalized to control: mUCP1 promoter reporter, co-transfected HR, with or without its ligand; for Normalized Luc. act., normalized to control: relative to control; for luciferase activity normalized to lacZ activity and to a control, mUCP!: mUCP! promoter-luciferase, CV-1 cells, NHR +/- ligand, control = 1.00
Method: as §1, §2, §3

Molecule	Luc. act., normalized to lacZ (hPPARg1 promoter)	Normalized Luc. act., normalized to control (hPPARg1 promoter)	Results of assays of transcription factor (+/- ligand) with hPPARg1 (hPPARg1 promoter)	Luc. act., normalized to lacZ (mPer1 promoter)	Normalized Luc. act., normalized to control (mPer1 promoter)	luciferase activity normalized to lacZ activity and to a control, mPer1 (mPer1 promoter)	Results of assays of transcription factor (+/- ligand) with mAgrp (mAgrp promoter)	Luc. act., normalized to lacZ (mAgrp promoter)	Normalized Luc. act., normalized to control (mAgrp promoter)	luciferase activity normalized to lacZ activity and to a control, hCAR (hCAR promoter)	Luc. act., normalized to lacZ (hCAR promoter)	Normalized Luc. act., normalized to control (hCAR promoter)	Luc. act., normalized to lacZ (hCYP3A4 promoter)	Normalized Luc. act., normalized to control (hCYP3A4 promoter)	hCYP3A4 promoter reporter activity (hCYP3A4 promoter)	Luc. act., normalized to lacZ (mUCP1 promoter)	Normalized Luc. act., normalized to control (mUCP1 promoter)	luciferase activity normalized to lacZ activity and to a control, mUCP! (mUCP1 promoter)
AR: Androsterone Receptor (NR3C4), cDNA driver	90.6	1.3	1.31	123.5	0.9	0.86	1.15	45.8	1.2	0.89	28.0	0.9	3.9	0.9	0.88	3.3	0.7	0.74
TLX: Tailless (homolog of drosophila) (NR2E1), cDNA driver	107.9	1.6	1.57	217.6	1.5	1.51	0.82	32.4	0.8	0.56	17.6	0.6	4.0	0.9	0.90	2.8	0.6	0.63
B1	37.9	0.5	0.55	117.6	0.8	0.82	0.78	31.0	0.8	1.44	45.5	1.4	4.8	1.1	1.08	17.2	3.9	3.88
B2	34.8	0.5	0.51	93.1	0.6	0.65	0.91	36.1	0.9	15.62	493.6	15.6	1.7	0.4	0.37	2.8	0.6	0.63
B3	74.0	1.1	1.07	107.9	0.7	0.75	1.65	65.6	1.7	0.58	18.2	0.6	1.6	0.4	0.36	1.7	0.4	0.38
